{"source": "paper PMC10001230", "about": "“A Role for the V0 Sector of the V-ATPase in Neuroexocytosis: Exogenous V0d Blocks Complexin and SNARE Interactions with V0c” (Cells, 2023)", "binders": {"B1": {"name": "V0c L1.2 peptide (aa 35-KSGTGIAAMSVMRPELIMKS-54) (peptide)", "peptide": "KSGTGIAAMSVMRPELIMKS", "notes": "V0c cytosolic loop 1.2; printed as aa 35-54; also called loop 1.2 peptide; free L1.2 peptide; source: synthetic peptide (Genecust)"}, "B2": {"name": "His6-T7-HSV tagged full-length V0c-subunit (natural protein, rat, UniProt P63081 1-155, looked up)", "chain": "MADIKNNPEYSSFFGVMGASSAMVFSAMGAAYGTAKSGTGIAAMSVMRPELIMKSIIPVVMAGIIAIYGLVVAVLIANSLTDGITLYRSFLQLGAGLSVGLSGLAAGFAIGIVGDAGVRGTAQQPRLFVGMILILIFAEVLGLYGLIVALILSTK", "notes": "V-ATPase V0 sector subunit c (V0c), full length; also called HSV-V0c; 6His-V0c; source: E. coli OverExpress C43(DE3), membranes solubilized in 2% FosCholine-12, purified (Ni-NTA)"}, "B3": {"name": "Complexin1-GST (natural protein, rat, UniProt P63041 1-134, looked up)", "chain": "MEFVMKQALGGATKDMGKMLGGDEEKDPDAAKKEEERQEALRQAEEERKAKYAKMEAEREVMRQGIRDKYGIKKKEEREAEAQAAMEANSEGSLTRPKKAIPPGCGDEPEEEDESILDTVIKYLPGPLQDMFKK", "notes": "Legends call it GST-complexin although GST stands downstream of complexin in the construct; also called GST-complexin; immobilized complexin; source: E. coli BL21, purified; not shown: GST, C-terminal, kept"}, "B4": {"name": "Complexin1-His (natural protein, rat, UniProt P63041 1-134, looked up)", "chain": "B3 chain", "notes": "also called His-tagged complexin; source: E. coli BL21, purified"}, "B5": {"name": "Full-length V0c-L3.4s mutant (V0c with scrambled loop 3.4) (natural protein, rat, UniProt P63081 1-155, looked up)", "chain": "B2 chain with V118Q, R119A, G120T, T121V, A122Q, Q123P, Q124L, P125G, L127R", "notes": "Cloned in pET28 (EcoR1/Sal1); source: E. coli OverExpress C43(DE3), purified (Ni-NTA)"}}, "details_in_all_cases": "both partners purified", "key": {"GST-V0d1 [1]": {"biological_target": "T1, GST-V0d1 (rat, UniProt Q5M7T6 1-351)", "T1 construct": "rat V-ATPase V0 sector subunit d1 (V0d1), amplified from an adult rat brain cDNA library and inserted EcoR1/Sal1 into pGEX-5x-1; the forward primer begins at the codon after the first methionine (SFFPEL), the reverse primer ends at the stop codon; also called immobilized V0d1; source: E. coli BL21, purified (Glutathione-Sepharose)", "T1 sequence (Q5M7T6 entry or part of it)": "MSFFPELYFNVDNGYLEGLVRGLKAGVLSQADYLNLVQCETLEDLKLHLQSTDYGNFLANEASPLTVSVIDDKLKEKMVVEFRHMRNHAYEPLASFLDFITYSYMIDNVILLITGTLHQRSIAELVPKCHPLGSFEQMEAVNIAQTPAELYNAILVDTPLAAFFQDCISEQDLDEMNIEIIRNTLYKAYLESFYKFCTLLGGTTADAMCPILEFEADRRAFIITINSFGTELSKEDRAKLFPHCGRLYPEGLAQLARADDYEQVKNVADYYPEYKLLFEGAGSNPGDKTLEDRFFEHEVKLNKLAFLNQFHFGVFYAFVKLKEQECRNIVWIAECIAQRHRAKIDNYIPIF", "experiment": "SPR; competition: V0c 50 nM injected over immobilized GST-V0d1 in the presence of an excess of GST or GST-complexin, or of L1.2 or L3.4 peptides; GST flow cell subtracted"}, "Complexin1-GST": {"biological_target": "B3", "experiment": "SPR; competition: V0c 100 nM preincubated or not with L1.2 or L3.4 peptides (10 µM) and injected on immobilized GST-complexin; 25 °C"}, "GST-V0d1 [2]": {"biological_target": "T1, GST-V0d1", "experiment": "ELISA; V0c, VAMP2, t-SNARE, complexin, trimeric SNARE complex with or without complexin immobilized; GST-V0d1 or GST 50 nM; detected with anti-GST; GST binding subtracted"}, "[3]": {"biological_target": "B5", "experiment": "SPR; Complexin1-GST and GST amine-coupled on the chip; V0c, V0c L1.2s or V0c L3.4s 50 nM injected for 2 min; 25 °C, HBS with or without 0.2% CHAPS; GST signal subtracted"}, "[4]": {"biological_target": "B2", "experiment": "SPR; Complexin1-GST and GST amine-coupled on the chip; V0c, V0c L1.2s or V0c L3.4s 50 nM injected for 2 min; 25 °C, HBS with or without 0.2% CHAPS; GST signal subtracted"}, "[5]": {"biological_target": "B2", "experiment": "ELISA; His-tagged complexin immobilized (1 µg/well); V0c 20 nM with or without VAMP2 100 nM, overnight 4 °C in 50 mM Tris-HCl pH 7.5, 150 mM NaCl, 3% BSA, 0.1% Triton X-100; detected with anti-HSV"}, "GST-V0d1 [6]": {"biological_target": "T1, GST-V0d1", "experiment": "SPR; GST-V0d1 and GST amine-coupled on consecutive flow cells; V0c (50 nM, with or without 2 µM soluble GST-V0d1), V0c L1.2s or V0c L3.4s injected; 25 °C; GST signal subtracted"}}, "note": "Positions count from the first letter of the chain named.", "data": [{"binder": "B1", "values": [{"measurement": "binding result", "setting": "GST-V0d1 [1]", "value": "binds"}, {"measurement": "binding result", "setting": "Complexin1-GST", "value": "binds"}]}, {"binder": "B2", "values": [{"measurement": "binding result", "setting": "GST-V0d1 [2]", "value": "binds"}]}, {"binder": "B3", "values": [{"measurement": "binding result", "setting": "[3]", "value": "binds"}, {"measurement": "binding result", "setting": "[4]", "value": "binds"}]}, {"binder": "B4", "values": [{"measurement": "binding result", "setting": "[5]", "value": "binds"}]}, {"binder": "B5", "values": [{"measurement": "binding result", "setting": "GST-V0d1 [6]", "value": "binds"}]}]}
